Key:
Assay in all cases: purified protein
Assay type in all cases: biochemical, Sulfolobus acidocaldarius
purified protein [1] = substrate: NC(=O)C1=CN([C@@H]2O[C@H](COP(=O)(O)OP(=O)(O)OC[C@H]3O[C@@H](n4cnc5c(N)ncnc54)[C@H](O)[C@@H]3O)[C@@H](O)[C@H]2O)C=CC1; conditions: 5 mM 2S-AL (saturating), 10 mM MgSO4, 100 mM phosphate pH 8.0, 25 °C, varied: cofactor
purified protein [2] = substrate: CC(=O)[C@](C)(O)C(=O)O; conditions: 0.22 mM NADPH, 10 mM MgSO4, 100 mM phosphate pH 8.0, 25 °C, racemic 2-acetolactate used, concentration counted as the S enantiomer
purified protein [3] = substrate: NC(=O)C1=CN([C@@H]2O[C@H](COP(=O)(O)OP(=O)(O)OC[C@H]3O[C@@H](n4cnc5c(N)ncnc54)[C@H](OP(=O)(O)O)[C@@H]3O)[C@@H](O)[C@H]2O)C=CC1; conditions: 5 mM 2S-AL (saturating), 10 mM MgSO4, 100 mM phosphate pH 8.0, 25 °C, varied: cofactor

B1: Sac-KARI (Sulfolobus acidocaldarius DSM 639) (protein)
chain: MAKIYTDKDVSLDVIKEKRVAVLGYGSQGRAWALNLRDSGIKVSVGLEREGNSWKQAENDGFKPLRTEEAVRNSDIIIFLLPDMIQRTVYLERVKPYLKEGMDLVFAHGFNIHYRLIEPPSNVDVYMIAPKAPGPIVREYFAKGGGVPALVATYQDHSGKALQKALAVAKAIGATRAGVIETTFKEETETDLFGEQVDLVGGVMQLMRYAFQTLVEAGYQPEVAYFETINEMKLIVDLVYEKGFSGMLTAVSDTAKYGGMTVGKMVIDESVKERMKKALDNIRSGKFAEKWVEEYGKGANTIKEGMKEVDNSTEEKVGRSLRDIILRGKPKS
notes: pET-21a NdeI/XhoI, His-tag retained; E. coli BL21(DE3); heat step, Ni-NTA, gel filtration; homodimer ~70 kDa (theoretical ~74 kDa); beta2-alphaB loop LEREGNS; R49, S53, D191, E195, E227, E231
- Km (purified protein [1]): 6.0 ± 0.8 µM
- kcat (purified protein [1]): 0.056 ± 0.001 s⁻¹
- kcat/Km (purified protein [1]): 9500 ± 1300 M⁻¹ s⁻¹
- Km (purified protein [2]): 140 ± 6 µM
- kcat (purified protein [2]): 0.068 ± 0.001 s⁻¹
- kcat/Km (purified protein [2]): 490 ± 20 M⁻¹ s⁻¹
- Km (purified protein [3]): 0.4 ± 0.2 µM
- kcat (purified protein [3]): 0.064 ± 0.001 s⁻¹
- kcat/Km (purified protein [3]): 186000 ± 80500 M⁻¹ s⁻¹

Reference: article PMC5940873, “NADH/NADPH bi-cofactor-utilizing and thermoactive ketol-acid reductoisomerase from Sulfolobus acidocaldarius” (Scientific Reports, 2018)
